# According to PMC2935574 (The Journal of Cell Biology, 2010):
# “And” between values parts separate entries of the source, which are not always exact repeats. Equal values may be shown once.
# B1: SPC24^57–197–SPC25^70–224 (complex, human)
# chain 1: TMEKEVAQSLLNAKEQVHQGGVELQQLEAGLQEAGEEDTRLKASLLQLTRELEELKEIEADLERQEKEVDEDTTVTIPSAVYVAQLYHQVSKIEWDYECEPGMVKGIHHGPSVAQPIHLDSTQLSRKFISDYLWSLVDTEW
# chain 2: RQNKLIQEKKDNLLKLIAEVKGKKQELEVLTANIQDLKEEYSRKKETISTANKANAERLKRLQKSADLYKDRLGLEIRKIYGEKLQFIFTNIDPKNPESPFMFSLHLNEARDYEVSDSAPHLEGLAEFQENVRKTNNFSAFLANVRKAFTATVYN
# B2: SPC24^57–197 (domain or fragment, human, UniProt Q8NBT2 57-197, looked up)
# chain: B1 chain 1
# B3: NSL1^227–281 (C-terminal tail of NSL1) (domain or fragment, human, UniProt Q96IY1 227-281, looked up)
# chain: KPDAKPENFITQIETTPTETASRKTSDMVLKRKQTKDCPQRKWYPLRPKKINLDT
# B4: MIS12C^NSL1-227 (MIS12 complex with a more extensive C-terminal deletion of NSL1) (complex, human)
# chain 1: MSVDPMTYEAQFFGFTPQTCMLRIYIAFQDYLFEVMQAVEQVILKKLDGIPDCDISPVQIRKCTEKFLCFMKGHFDNLFSKMEQLFLQLILRIPSNILLPEDKCKETPYSEEDFQHLQKEIEQLQEKYKTELCTKQALLAELEEQKIVQAKLKQTLTFFDELHNVGRDHGTSDFRESLVSLVQNSRKLQNIRDNVEKESKRLKIS
# chain 2: MAEASSANLGSGCEEKRHEGSSSESVPPGTTISRVKLLDTMVDTFLQKLVAAGSYQRFTDCYKCFYQLQPAMTQQIYDKFIAQLQTSIREEISDIKEEGNLEAVLNALDKIVEEGKVRKEPAWRPSGIPEKDLHSVMAPYFLQQRDTLRRHVQKQEAENQQLADAVLAGRRQVEELQLQVQAQQQAWQALHREQRELVAVLREPE
# chain 3: MTSVTRSEIIDEKGPVMSKTHDHQLESSLSPVEVFAKTSASLEMNQGVSEERIHLGSSPKKGGNCDLSHQERLQSKSLHLSPQEQSASYQDRRQSWRRASMKETNRRKSLHPIHQGITELSRSISVDLAESKRLGCLLLSSFQFSIQKLEPFLRDTKGFSLESFRAKASSLSEELKHFADGLETDGTLQKCFEDSNGKASDFSLEASVAEMKEYITKFSLERQTWDQLLLHYQQEAKEILSRGSTEAKITEVKVEPMTYLGSSQNEVLNTKPDYQKILQNQSKVFDCMELVMDELQGSVKQLQAFMDESTQCFQKVSVQLGKRSMQQLDPSPARKLLKLQLQNPPAIHGSGSGSCQ
# chain 4: MAGSPELVVLDPPWDKELAAGTESQALVSATPREDFRVRCTSKRAVTEMLQLCGRFVQKLGDALPEEIREPALRDAQWTFESAVQENISINGQAWQEASDNCFMDSDIKVLEDQFDEIIVDIATKRKQYPRKILECVIKTIKAKQEILKQYHPVVHPLDLKYDPDPAPHMENLKCRGETVAKEISEAMKSLPALIEQGEGFSQVLRMQPVIHLQRIHQEVFSSCHRK
# B5: MIS12 (subunit of MIS12C) (natural protein, human, UniProt Q9H081 1-205, looked up)
# chain: B4 chain 1
# B6: MIS12C^NSL1-258 (MIS12 complex with NSL1 residues 1–258) (complex, human)
# chain 1: B4 chain 1
# chain 2: B4 chain 2
# chain 3: B4 chain 3
# chain 4: MAGSPELVVLDPPWDKELAAGTESQALVSATPREDFRVRCTSKRAVTEMLQLCGRFVQKLGDALPEEIREPALRDAQWTFESAVQENISINGQAWQEASDNCFMDSDIKVLEDQFDEIIVDIATKRKQYPRKILECVIKTIKAKQEILKQYHPVVHPLDLKYDPDPAPHMENLKCRGETVAKEISEAMKSLPALIEQGEGFSQVLRMQPVIHLQRIHQEVFSSCHRKPDAKPENFITQIETTPTETASRKTSDMVLKR
# B7: MIS12C–KNL1^2106–2316 (five-subunit complex) (complex, human)
# chain 1: B4 chain 1
# chain 2: B4 chain 2
# chain 3: B4 chain 3
# chain 4: MAGSPELVVLDPPWDKELAAGTESQALVSATPREDFRVRCTSKRAVTEMLQLCGRFVQKLGDALPEEIREPALRDAQWTFESAVQENISINGQAWQEASDNCFMDSDIKVLEDQFDEIIVDIATKRKQYPRKILECVIKTIKAKQEILKQYHPVVHPLDLKYDPDPAPHMENLKCRGETVAKEISEAMKSLPALIEQGEGFSQVLRMQPVIHLQRIHQEVFSSCHRKPDAKPENFITQIETTPTETASRKTSDMVLKRKQTKDCPQRKWYPLRPKKINLDT
# chain 5: LSEWDVVEWSDDQAVFTFVYDTIQLTITFEESVVGFPFLDKRYRKIVDVNFQSLLDEDQAPPSSLLVHKLIFQYVEEKESWKKTCTTQHQLPKMLEEFSLVVHHCRLLGEEIEYLKRWGPNYNLMNIDINNNELRLLFSSSAAFAKFEITLFLSAYYPSVPLPSTIQNHVGNTSQDDIATILSKVPLENNYLKNVVKQIYQDLFQDCHFYH
# Tests used:
# [1] = target: fluorescein-labeled synthetic peptides encompassing residues 205–217 or 202–219 of NSL1; test: fluorescence polarisation
# [2] = target: B6; test: AUC
# [3] = target: B6; test: ITC
# SPC25^70–224 = target: T1, SPC25^70–224 (human, UniProt Q9HBM1 70-224); test: AUC
# T1 sequence (looked up): B1 chain 2
# [4] = target: T2, KNL1^2106–2316 (C-terminal region of KNL1) (human, UniProt Q8NG31-2 2106-2316); test: ITC
# T2 sequence (looked up): B7 chain 5
# [5] = target: T3, NDC80 complex (four-subunit NDC80C) (human, UniProt O14777 1-642; Q9BZD4 1-464; Q8NBT2 1-197; Q9HBM1 1-224); test: SEC
# [6] = target: T4, DSN1 (subunit of MIS12C, hexahistidine tag) (human, UniProt Q9H410 1-356); test: co-expression and co-purification
# T4 sequence (looked up): B4 chain 3
# [7] = target: T3, NDC80 complex (four-subunit NDC80C); test: ITC
# T3 sequence (O14777 whole entry, chain 1 of 4): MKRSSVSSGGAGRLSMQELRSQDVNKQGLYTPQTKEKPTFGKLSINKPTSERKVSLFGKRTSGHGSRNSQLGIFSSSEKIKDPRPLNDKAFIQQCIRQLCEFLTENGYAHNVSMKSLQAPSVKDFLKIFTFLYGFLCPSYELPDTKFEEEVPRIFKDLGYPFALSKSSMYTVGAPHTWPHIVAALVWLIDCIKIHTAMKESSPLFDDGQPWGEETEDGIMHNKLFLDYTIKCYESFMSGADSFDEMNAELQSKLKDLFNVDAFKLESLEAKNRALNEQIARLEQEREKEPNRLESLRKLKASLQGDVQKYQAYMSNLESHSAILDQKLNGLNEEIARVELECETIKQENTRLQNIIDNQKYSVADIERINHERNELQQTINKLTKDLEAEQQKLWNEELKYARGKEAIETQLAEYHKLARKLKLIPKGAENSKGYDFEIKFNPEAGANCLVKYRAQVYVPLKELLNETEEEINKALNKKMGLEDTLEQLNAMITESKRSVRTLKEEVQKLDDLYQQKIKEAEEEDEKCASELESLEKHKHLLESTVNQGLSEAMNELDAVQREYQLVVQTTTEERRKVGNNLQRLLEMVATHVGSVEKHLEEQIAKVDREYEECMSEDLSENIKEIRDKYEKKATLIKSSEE
# T3 sequence (Q9BZD4 whole entry, chain 2 of 4): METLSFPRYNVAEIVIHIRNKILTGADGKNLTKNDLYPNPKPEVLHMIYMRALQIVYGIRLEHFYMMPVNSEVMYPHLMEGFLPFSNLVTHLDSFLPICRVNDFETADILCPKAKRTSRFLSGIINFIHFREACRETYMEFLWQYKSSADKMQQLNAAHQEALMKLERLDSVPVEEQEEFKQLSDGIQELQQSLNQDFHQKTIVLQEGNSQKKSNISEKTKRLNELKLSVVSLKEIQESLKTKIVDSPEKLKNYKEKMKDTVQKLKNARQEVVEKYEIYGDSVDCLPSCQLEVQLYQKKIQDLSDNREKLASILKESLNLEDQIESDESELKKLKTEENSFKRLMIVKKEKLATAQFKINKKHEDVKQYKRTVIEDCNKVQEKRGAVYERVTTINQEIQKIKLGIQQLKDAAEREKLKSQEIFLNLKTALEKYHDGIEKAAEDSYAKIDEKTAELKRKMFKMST
# T3 sequence (Q8NBT2 whole entry, chain 3 of 4): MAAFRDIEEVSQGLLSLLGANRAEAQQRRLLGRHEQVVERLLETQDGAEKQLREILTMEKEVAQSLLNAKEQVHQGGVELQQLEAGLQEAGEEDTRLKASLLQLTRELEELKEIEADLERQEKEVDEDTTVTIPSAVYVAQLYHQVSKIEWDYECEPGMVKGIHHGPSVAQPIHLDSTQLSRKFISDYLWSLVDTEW
# T3 sequence (Q9HBM1 whole entry, chain 4 of 4): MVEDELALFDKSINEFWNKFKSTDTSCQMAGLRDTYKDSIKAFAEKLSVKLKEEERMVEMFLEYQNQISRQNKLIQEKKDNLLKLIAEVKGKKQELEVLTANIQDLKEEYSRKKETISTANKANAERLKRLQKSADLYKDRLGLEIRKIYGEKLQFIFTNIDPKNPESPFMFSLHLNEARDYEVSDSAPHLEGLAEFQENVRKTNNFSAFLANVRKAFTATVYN
molecule,measurement,setting,value
HP1^110–191 (chromoshadow domain of HP1-α) (from UniProt P45973 110-191) (domain or fragment),Kd,[1],400 to 500 nM
B1,stoichiometry N,[2],1
same,Kd,[3],~10 nM
B2,stoichiometry N,SPC25^70–224,1
B3,Kd,[4],~63 nM and ~130 nM
same,stoichiometry N,[4],1
B4,binding result,[5],binds
B5,binding result,[6],binds
B6,Kd,[7],~10 nM
B7,Kd,[7],4 nM
